Results on one molecule are retold here after article PMC11260479, “YY1 is involved in homologous recombination inhibition at guanine quadruplex sites in human cells”.

In this data set the target is RAD51 (UniProt Q06609 1-339). Kind of data set: EMSA; 2 mM ATP, 5 mM CaCl2; EMSA, 10 nM DNA. RAD51: 20 mM Tris-HCl pH 8.0, 30 mM NaCl, 1 mM DTT, 2 mM ATP, 5 mM CaCl2, 0.2% Tween 20, 37 C 15 min. BG4: 20 mM Tris-HCl pH 8.0, 30 mM KCl, 1. The conditions noted are these: protein: commercial; chain copies: 10; label: none (SYBR Gold stain); single strand.
Chain of RAD51 (Q06609 whole entry): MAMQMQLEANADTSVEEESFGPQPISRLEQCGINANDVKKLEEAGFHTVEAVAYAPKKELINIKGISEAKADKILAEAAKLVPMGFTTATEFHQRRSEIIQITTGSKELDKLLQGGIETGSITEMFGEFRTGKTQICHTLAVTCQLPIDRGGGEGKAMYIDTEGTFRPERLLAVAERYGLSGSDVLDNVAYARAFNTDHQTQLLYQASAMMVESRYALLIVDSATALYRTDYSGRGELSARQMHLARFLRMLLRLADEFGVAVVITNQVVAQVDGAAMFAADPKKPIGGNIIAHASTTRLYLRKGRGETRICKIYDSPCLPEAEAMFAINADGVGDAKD

B1: ss-DNA (ssDNA)
DNA: ATGGTGTGTGTAGGTTAATGTGAGGAGGAGAGGTGAAGAAGGAGGAGAGAAGAAGGAGGC
B1: the binding result is “binds”.
